Source: patent publication US20110319869A1 (US Dept. of Health and Human Services, published 2011)

B1: NCA peptide, YRPGENLNL (peptide)
peptide: YRPGENLNL
B2: MUC-1 peptide P-92 (native), ATWGQDVTSV (peptide)
peptide: ATWGQDVTSV
notes: Synthetic 10-mer from the non-VNTR region of MUC-1
B3: MUC-1 peptide analogue P-93I (peptide)
peptide: AIWGQDVTSV
notes: also called I-93
B4: MUC-1 agonist peptide P-93L, ALWGQDVTSV (peptide)
peptide: ALWGQDVTSV
notes: also called L-93; MUC-1 peptide
B5: MUC-1 peptide analogue I-93/L-101 (peptide)
peptide: AIWGQDVTSL
B6: MUC-1 peptide analogue M-93/L-101 (peptide)
peptide: AMWGQDVTSL
B7: MUC-1 peptide analogue L-93/L-101 (peptide)
peptide: ALWGQDVTSL
B8: MUC-1 peptide analogue M-93 (peptide)
peptide: AMWGQDVTSV
B9: MUC-1 peptide P-94, WGQDVTSVPV (peptide)
peptide: WGQDVTSVPV
B10: MUC-1 peptide P-1069, LQRDISEMFL (peptide)
peptide: LQRDISEMFL
B11: MUC-1 peptide P-1108, REGTINVHDV (peptide)
peptide: REGTINVHDV
B12: MUC-1 peptide P-1162, ALLVLVCVLV (peptide)
peptide: ALLVLVCVLV
B13: MUC-1 peptide P-1169, VLVALAIVYL (peptide)
peptide: VLVALAIVYL
B14: MUC-1 peptide P-1104, TLASHSTKTD (peptide)
peptide: TLASHSTKTD
B15: MUC-1 peptide P-1135, TISDVSVSDV (peptide)
peptide: TISDVSVSDV
B16: MUC-1 peptide P-1105, LAFREGTINV (peptide)
peptide: LAFREGTINV
B17: MUC-1 peptide P-4, GTQSPFFLLL (peptide)
peptide: GTQSPFFLLL

What follows are molecules tested against T1, HLA-A2 molecule (human) (assay: T2 cell binding assay: flow cytometry of surface HLA-A2 with anti-HLA-A2 mAb; negative control).
T1 construct: also called HLA-A2 on T2 cells (174CEM-T2; T2A2 cells)
In the case of CEA CAP-7 (HLA-A3 binding peptide), the T2 binding (relative fluorescence) (relative fluorescence values) is reported as 200.

The molecules below were run against T1, HLA-A2 molecule (assay: T2 cell binding assay, flow cytometry with anti-HLA-A2 mAb).
Procedure: (§1) In this assay, increased stability (accumulation) of HLA-A2 molecules on the surface of T2 cells as a consequence of peptide binding is measured by increased binding of antibody directed against HLA-A2 molecule. Briefly, 1×10⁶ cells in serum-free Iscove's modified Dulbecco's complete medium were incubated with peptides at a concentration of 50 μg/ml in 24-well culture plates at 37° C. in 5% CO₂. Flow cytometry for peptide binding was performed using T2 cells and single-color analysis. After cells were washed three times in DPBS, as described above, they were incubated for 1 h with a 1:100 dilution of HLA-A2—specific MAb (One Lambda, Inc.) per 10⁶ cells. UPC-10 (Cappel/Organon Teknika) was used as isotype control. The cells were then washed three times and incubated with 1:100 dilution of FITC-labeled anti-mouse IgG (BD Biosciences). Analysis was conducted with the FACScan, as described above. Cells were maintained on ice during all cell preparation and staining.
The primary amino acid sequence of human MUC-1 was analyzed for consensus motifs for novel HLA-A2 binding peptides.
B1: no binding (tested: 50 µg/ml peptide).

These molecules were tested against T1, HLA-A2 molecule (assay: T2 cell binding assay: flow cytometry of surface HLA-A2 with anti-HLA-A2 mAb after incubation with peptide (50 µg/ml)).
Procedure: as §1
With B2 the “T2 binding (relative fluorescence)” value was 510 relative fluorescence values.
For B3, the “T2 binding (relative fluorescence)” value was 823 relative fluorescence values.
With B4 the “T2 binding (relative fluorescence)” value was 821 relative fluorescence values.
With B5 the “T2 binding (relative fluorescence)” value was 280 relative fluorescence values.
B6 was tested, and the “T2 binding (relative fluorescence)” value was 325 relative fluorescence values.
B7 was tested, and the “T2 binding (relative fluorescence)” value was 736 relative fluorescence values.
B8 was tested, and the “T2 binding (relative fluorescence)” value was 723 relative fluorescence values.

Target: T1, HLA-A2 molecule
Experiment: as above
Remark: another data set of the same source
Procedure: as §1, with “staining. […]” for “staining.”
With B2 the “T2 binding (relative fluorescence)” value was 740 relative fluorescence.
In the case of B9, the “T2 binding (relative fluorescence)” value is reported as 591 relative fluorescence.
In the case of B10, the “T2 binding (relative fluorescence)” value is reported as 433 relative fluorescence.
In the case of B11, the “T2 binding (relative fluorescence)” value is reported as 482 relative fluorescence.
With B12 the “T2 binding (relative fluorescence)” value was 431 relative fluorescence.
With B13 the “T2 binding (relative fluorescence)” value was 369 relative fluorescence.
In the case of B14, the “T2 binding (relative fluorescence)” value is reported as 442 relative fluorescence.
In the case of B15, the “T2 binding (relative fluorescence)” value is reported as 422 relative fluorescence.
In the case of B16, the “T2 binding (relative fluorescence)” value is reported as 461 relative fluorescence.
With B17 the “T2 binding (relative fluorescence)” value was 467 relative fluorescence.
